According to article PMC3063406 (Cell, 2011):

T1: recombinant RIM1 PDZ-domain (rat RIM1 residues 596-704) (rat, UniProt Q9JIR4 596-704, ^15N-labeled (for the HSQC spectra))
T1 sequence (looked up): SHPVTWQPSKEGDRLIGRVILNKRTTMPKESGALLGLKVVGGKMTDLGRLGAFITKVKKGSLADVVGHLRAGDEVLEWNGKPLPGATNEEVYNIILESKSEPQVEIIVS


Key:
[1] = target: recombinant RIM1 PDZ-domain (rat RIM1 residues 596-704) (rat) (UniProt Q9JIR4); assay: ITC
[2] = target: T1, recombinant RIM1 PDZ-domain (rat RIM1 …); assay: ITC

| Molecule | Kd [1] | stoichiometry N [1] | Kd [2] | stoichiometry N [2] |
| --- | --- | --- | --- | --- |
| C-terminus of N-type Ca^2+-channels (tested by HSQC and calorimetry) (from UniProt Q00975 1-2339) (domain or fragment) | 23.4 µM | 0.93 | – | – |
| RHDAYSESEDDWC [peptide from the C-terminus of the P/Q-type Ca^2+-channel (residues RHDAYSESEDDWC)] | – | – | 10.3 ± 0.6 µM | 0.93 |
